This assay concerns the target T1, osteocalcin C-terminal 7-residue peptide BGP-C7 (human).
T1 construct: C-terminal 7 residues of human osteocalcin (bone Gla protein, BGP), printed as NH2-RRFYGPV-COOH; Free N- and C-termini as printed (NH2-RRFYGPV-COOH); also called antigen peptide; osteocalcin C-terminal peptide
T1 chain: RRFYGPV
The assay is described as follows: crystal structure; KTM219 Fab with three molar excess BGP-C7, complex purified by gel filtration; crystallised at 20 °C, sitting drop, 0.07 M citric acid, 0.03 M Bis-tris propane (pH 3.4), 16% w/v PEG 3350, microseeding; refined to 2.30 Å. The settings on record: both partners purified.

B1: Fab fragment of anti-osteocalcin C-terminal peptide antibody KTM219 (Fab, V domains shown)
VH: QVKLQQSGAEFVKAGASVKLSCKTSGYTFNNYWIHWVKQSPGQGLEWIGEIDPSDGYSNYNQKFKGKATLTVDKSSSTAYMHLNSLTSEDSAVYYCTSSTSVGGSWGQGTTVTVSS
VL: DIELTQSPLSLPVSLGDQASISCTSSQSLLHSNGDTYLHWYLQKPGQSPKLLIYTLSNRFSGVPDRFSGSGSGTDFTLKISRVEAADLGIYFCSQTTHVPYTFGGGTKLEIK
notes: heavy chain (VH-CH1) of KTM219 Fab; light chain (VL-CL) of KTM219 Fab; also called KTM219 Fab
For B1, the binding result is on record as “binds”.

The values above are taken from publication PMC11765575 (International Journal of Molecular Sciences, 2025).
